Measured values: US20040265295A1 (WISCONSIN ALUMNI RESEARCH FOUNDATION, published 2004)
Ends that are not written are not given here.

Key:
[1] = target: T1, GST-talin head Lys^357->Gln mutant (human, UniProt Q9Y490 1-435); assay: GST pull-down
T1 construct: Talin head mutant in pET42; also called mutant GST-talin; not shown: GST (and further tags) of the pET42 vector
Experimental: (§1) Purified GST-talin head proteins were incubated with PIPKIγ661 tails or β1-integrin tail, together with Glutathione SEPHAROSE™ 4 Fast Flow (Amersham Biosciences, Piscataway, N.J.), in Buffer B (PBS, 0.2% NP-40, 2 mM DTT) at 4° C. for 4 hours. The beads were washed three times with Buffer B and analyzed by western blot. For competition assays, GST-talin head proteins were incubated with peptides or competing proteins for 2 hours, then the binding proteins were added and the mixtures were incubated for another 4 hours.

[2] = target: T2, GST-talin head Arg^358->Gln mutant (human, UniProt Q9Y490 1-435); assay: GST pull-down
T2 construct: Talin head mutant in pET42; also called mutant GST-talin; not shown: GST (and further tags) of the pET42 vector
Experimental: as §1

T1 sequence (Q9Y490 other isoform, or with tags, fused parts or gaps mutant): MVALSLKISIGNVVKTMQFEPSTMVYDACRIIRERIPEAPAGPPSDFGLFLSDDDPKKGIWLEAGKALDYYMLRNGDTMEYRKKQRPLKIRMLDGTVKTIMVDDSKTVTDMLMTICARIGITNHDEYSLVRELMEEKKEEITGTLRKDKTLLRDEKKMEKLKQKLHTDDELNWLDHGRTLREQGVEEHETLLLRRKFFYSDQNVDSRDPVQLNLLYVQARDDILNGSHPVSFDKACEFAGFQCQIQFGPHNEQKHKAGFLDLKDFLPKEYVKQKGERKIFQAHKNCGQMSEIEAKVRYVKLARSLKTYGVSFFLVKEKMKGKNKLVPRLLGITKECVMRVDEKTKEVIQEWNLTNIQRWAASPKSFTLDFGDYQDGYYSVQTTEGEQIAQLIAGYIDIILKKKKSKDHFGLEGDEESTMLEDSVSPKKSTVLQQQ
T2 sequence (Q9Y490 other isoform, or with tags, fused parts or gaps mutant): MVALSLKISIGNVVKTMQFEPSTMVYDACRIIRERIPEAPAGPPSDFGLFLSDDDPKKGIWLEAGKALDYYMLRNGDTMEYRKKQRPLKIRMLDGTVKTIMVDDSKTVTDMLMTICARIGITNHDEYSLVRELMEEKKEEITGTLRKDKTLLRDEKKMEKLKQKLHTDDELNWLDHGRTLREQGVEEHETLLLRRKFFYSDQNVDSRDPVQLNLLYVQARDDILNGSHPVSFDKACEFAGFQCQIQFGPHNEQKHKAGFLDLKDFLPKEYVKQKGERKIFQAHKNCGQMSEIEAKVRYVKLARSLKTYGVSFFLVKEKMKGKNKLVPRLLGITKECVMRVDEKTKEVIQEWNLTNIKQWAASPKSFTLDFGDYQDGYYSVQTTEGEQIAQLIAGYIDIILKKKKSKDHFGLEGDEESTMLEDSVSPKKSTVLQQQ

B1: His-tagged mouse β1-integrin tail (receptor, UniProt P09055 752-798, looked up)
chain: KLLMIIHDRREFAKFEKEKMNAKWDTGENPIYKSAVTTVVNPKYEGK
modifications: not fully specified (N-terminus); also: N-terminal His tag of pET28 vector, sequence not given here
notes: domain: tail; also called His-β1-integrin tail; His-β-integrin; not shown: His tag of the pET28 vector
[1]
  binding result: no binding
[2]
  binding result: no binding
